Experiment [1] has as its system B16M cell adhesion to IL-18-treated HSE. The experiment can be described thus: B16M cell adhesion to IL-18-treated HSE. The format is cell-based, mouse. On the procedure:
FIG. 4. In vitro B16M cells adhesion to IL-18-treated HSE. HSE cells were incubated with 1 ng/ml recombinant murine IL-18 for 6 hours. In some experiments, 10 μg/ml TNF-sRp55 or 100 ng/ml IL-1Ra was added 10 min before IL-18.In other experiments, 10 μg/ml anti-VCAM-1 antibody or a similar concentration of non-specific anti-mouse lgG was added to HSE cells 30 min before B16M cells. Then, B16M cell adhesion percentage was determined as described hereinbelow in the examples. The results represent the mean ±SD of three separate experiments, each in sextuplicate (n=18). Differences in the degree of adhesion with respect to basal medium-treated HSE (*) and to IL-18-treated HSE (**) were statistically significant (P<0.01), according to the Student's two-tailed, unpaired t-test.
(§1) HSE was separated from syngeneic mice, identified and cultured as previously described (26). B16M cells were labeled with 2′,7′-bis-(2-carboxyethyl)-5,6-carboxyfluorescein-acetoxymethylester solution (BCECF-AM, Molecular Probes, Eugene, Oreg.) as reported (16). Then, 2×10^5 cells/well were added to 24-well-plate cultured HSE and 8 min later, wells were washed three times with fresh medium. The number of adhering cells was determined using a quantitative method based on a previously described fluorescence measurement system (16). In some experiments, HSE cells were pre-incubated with B16M-CM for several hours before addition of B16M cells.

In the next experiment the test system is B16M cells. The experiment can be described thus: Adhesion of pre-treated B16M cells (IL-18 or supernatant of B16M-CM-treated HSE) to HSE. Particulars: B16M cells incubated with 1 ng/ml murine IL-18 for 6 h. It is filed as cell-based, mouse. On the procedure: However, local production of IL-18 may influence B16M cell behavior during its transit or arrest in the hepatic microvasculature.
as §1

In the next experiment the test system is circulating IFN-γ. The conditions noted are these: administration of IL-18BP to mice; cited from earlier work.
The target of the next experiment is T1, IL-18 (Homo sapiens, UniProt Q14116).
T1 sequence (Q14116 37-193): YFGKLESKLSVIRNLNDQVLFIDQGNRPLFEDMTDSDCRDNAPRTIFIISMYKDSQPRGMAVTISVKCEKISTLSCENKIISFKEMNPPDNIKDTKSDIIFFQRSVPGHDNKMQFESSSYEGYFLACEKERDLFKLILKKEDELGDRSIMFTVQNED
Particulars: in vitro; cited from earlier work.

In experiment [2] the test system is B16M cell adhesion to HSE cells. The experiment can be described thus: B16M cell adhesion to B16M-CM-treated primary HSE cultures. The conditions noted are these: for % Melanoma Cell Adhesion: HSE stimulated with B16-CM. It is filed as cell-based, mouse. As for the experimental part:
FIG. 2 Effect of irreversible ICE inhibitor and anti-mouse IL-18 antibody on B16M cell adhesion to HSE cells, and IL-1β and TNF-α production from untreated and B16M-CM-treated HSE. Cultured HSE cells were incubated in the presence of B16M-CM for 10 h. In some experiments, both untreated and treated HSE cells received 10 μM ICEi or 10 μg/ml anti-mouse IL-18 antibody before B16M-CM. The percentage of B16M cells adhered to HSE substrate was calculated as relative value with respect to the initial number of added cells. In addition, the culture supernatants were recovered before adhesion to determine IL-1β and TNF-α concentration by ELISA. Data represent the mean ±SD of 4 separate experiments, each in sextuplicate (n=24). The augmentation of B16M cell adhesion to B16M-CM-treated HSE and of IL-1β or TNF-α production with respect to untreated HSE (*P<0.01) were statistically significant according to the Student's two-tailed, unpaired t-test.
(§2) FIG. 3. Effect of ICEi on B16M cell adhesion to B16M-CM-treated HSE in vitro. HSE cells were incubated with basal medium or B16M-CM for 8 h. Some HSE cells received 10 μM ICEi for 18 h before B16M-CM. In addition, 1 ng/ml recombinant murine IL-1β was also added to some HSE cells together with B16M-CM for 8 h. In other experiments, HSE cells received 1 ng/ml murine IL-1β or 100 pg/ml TNF-α for 6 h, and 10 μg/ml rabbit anti-mouse IL-18 polyclonal antibody was added or not 1 h before the cytokine treatment. Non-specific IgG polyclonal antibody was also added to untreated and cytokine-treated HSE cells. Then, HSE cells were washed and BCEFCF-AM-labeled B16M cells were added and washed again 8 min later. The percentage of B16M cells adhered to HSE substrate was calculated as relative value with respect to the initial number of added cells. The results represent the mean ±SD of three separate experiments, each in sextuplicate (n=18). Differences in the degree of adhesion with respect to untreated HSE (*) and to IL-1β or TNF-α-treated HSE (**) were statistically significant (P<0.01), according to the Student's two-tailed, unpaired t-test.
Culture of B16M cells. B16M cells were cultured, maintained and passaged as previously described (11). B16M conditioned medium (B16M-CM) was prepared as follows: 5×10^5 cells were plated in a 25 cm^2 T-flask and cultured for 24 h. After which, cells were cultured for an additional period of 24 h in 5 ml serum-free medium (final cellular density of 6×10^4 cells/cm^2). Supernatants were collected, diluted 3:1 in fresh serum-free medium and passed through a 0.22 Ïm filter.
(§3) HSE was separated from syngeneic mice, identified and cultured as previously described (26). […] The number of adhering cells was determined using a quantitative method based on a previously described fluorescence measurement system (16). […]

Experiment [3] concerns B16M cell adhesion to IL-1β or TNF-α-treated HSE. Put plainly: B16M cell adhesion to IL-1β- or TNF-α-treated HSE. It is filed as cell-based, mouse. The conditions noted are these: 1 ng/ml murine IL-1β. On the procedure:
as §2, §3

Where “and” joins values, the source holds several entries; their conditions need not be identical. Equal entries are not always repeated. Marks after values point to notes of the source that are not given here.

For the molecule “IL-1Ra: recombinant human IL-1 receptor antagonist, gift from The Upjohn Co. [reference compound]”, the “inhibition of IL-18-induced B16M cell adhesion to HSE” value in experiment [1] (100 ng/ml IL-1Ra added 10 min before IL-18) was “neither TNF-sR p55 nor IL-1Ra were able to inhibit it”.

B1: murine IL-18: recombinant murine IL-18 purchased from PeproTech (protein, UniProt P70380 36-192, looked up)
Interleukin-18: NFGRLHCTTAVIRNINDQVLFVDKRQPVFEDMTDIDQSASEPQTRLIIYMYKDSEVRGLAVTLSVKDSKMSTLSCKNKIISFEEMDPPENIDDIQSDLIFFQKRVPGHNKMEFESSLYEGHFLACQKEDDAFKLILKKKDENGDKSVMFTLTNLHQS
With B1, the “increase of B16M cell adhesion to untreated HSE” value with B16M cells is listed as 2 fold. The “B16M cell adhesion to HSE” value in experiment [1] (HSE incubated with 1 ng/ml recombinant murine IL-18 for 6 hours, P<0.01) is “increased”.

B2: TNF-sR p55: human p55 TNF soluble receptor, gift from Serono Inc. (protein, UniProt P19438 30-211, looked up)
extracellular domain: LVPHLGDREKRDSVCPQGKYIHPQNNSICCTKCHKGTYLYNDCPGPGQDTDCRECESGSFTASENHLRHCLSCSKCRKEMGQVEISSCTVDRDTVCGCRKNQYRHYWSENLFQCFNCSLCLNGTVHLSCQEKQNTVCTCHAGFFLRENECVSCSNCKKSLECTKLCLPQIENVKGTEDSGTT
modifications: extracellular domain
For the molecule B2, the “inhibition of IL-18-induced B16M cell adhesion to HSE” value in experiment [1] (10 μg/ml TNF-sRp55 added 10 min before IL-18) is reported as “neither TNF-sR p55 nor IL-1Ra were able to inhibit it”.

B3: IL-18BP: IL-18 binding protein, purified from urine, cloned and expressed in COS7 cells; binds IL-18 and blocks its activity (protein, UniProt O95998 31-194, looked up)
Interleukin-18-binding protein: TPVSQTTTAATASVRSTKDPCPSQPPVFPAAKQCPALEVTWPEVEVPLNGTLSLSCVACSRFPNFSILYWLGNGSFIEHLPGRLWEGSTSRERGSTGTQLCKALVLEQLTPALHSTNFSCVLVDPEQVVQRHVVLAQLWAGLRATLPPTQEALPSSHSSPQQQG
Regarding B3, the “circulating IFN-γ following LPS” value with circulating IFN-γ was “abrogated”. In the experiment with IL-18, the “IL-18 activation of NF-κB” value is “abolished”, the “IL-18 induction of IL-8” value was “abolished” and the “IL-18 induction of interferon-γ (IFN-γ)” value is on record as “abolished”. For the same molecule, in experiment [2] (IL-18BP 1 ng/ml), the “% Melanoma Cell Adhesion” value is 15.00 ± 2.5** %. Besides, the “% Melanoma Cell Adhesion” value in experiment [2] (IL-18BP 10 ng/ml) was 8.70% and 8.70 ± 1.1** %. In addition, the “inhibition of B16-CM-induced adhesion” value in experiment [2] (IL-18BP 10 ng/ml, adhesion below basal medium level) is reported as 100%.

B4: murine IL-1β: recombinant murine IL-1β from R&D System Inc. (protein, UniProt P10749 118-269, looked up)
Interleukin-1 beta: VPIRQLHYRLRDEQQKSLVLSDPYELKALHLNGQNINQQVIFSMSFVQGEPSNDKIPVALGLKGKNLYLSCVMKDGTPTLQLESVDPKQYPKKKMEKRFVFNKIEVKSKVEFESAEFPNWYISTSQAEHKPVFLGNNSGQDIIDFTMESVSS
Turning to B4, the “compensation of the blocking effect of ICEi on HSE adhesiveness” value in experiment [2] (1 ng/ml murine IL-1β added with B16M-CM for 8 h to ICEi-treated HSE) is recorded as “did not compensate”. For the same molecule, in experiment [3], the “B16M cell adhesion to IL-1β-treated control HSE” value was “significant B16M cell adhesion increase”.

These data come from US7741276B2, “Use of interleukin-18 inhibitors to inhibit tumor metastasis” (Ares Trading S.A., priority 1999, dated 2010).
